Source: PMC10844748

Target: S. cerevisiae translation elongation factor 1A (eEF1A), TEF1-encoded, purified from a ΔEFM4 strain (S. cerevisiae) (UniProt P02994)
Sequence of UniProt P02994 (P02994 whole entry, stated change not applied): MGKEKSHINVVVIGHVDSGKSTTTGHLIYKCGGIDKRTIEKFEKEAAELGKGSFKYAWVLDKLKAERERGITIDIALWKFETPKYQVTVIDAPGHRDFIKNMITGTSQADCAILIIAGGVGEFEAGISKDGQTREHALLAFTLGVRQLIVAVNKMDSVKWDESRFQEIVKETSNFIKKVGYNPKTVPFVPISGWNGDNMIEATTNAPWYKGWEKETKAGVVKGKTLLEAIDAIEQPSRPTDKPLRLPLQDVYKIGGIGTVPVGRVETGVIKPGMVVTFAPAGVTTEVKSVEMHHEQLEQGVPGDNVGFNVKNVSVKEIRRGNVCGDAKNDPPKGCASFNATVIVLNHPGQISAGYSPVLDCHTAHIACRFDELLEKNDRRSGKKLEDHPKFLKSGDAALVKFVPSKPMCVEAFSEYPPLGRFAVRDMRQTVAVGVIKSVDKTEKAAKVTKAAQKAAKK

in vitro methylation of eEF1A K316 (Efm4 3 μM, eEF1A 2 μM, AdoMet, 30 min, 30 °C; LC-MS/MS): < 20%
B1: Efm4 F210A/F212A double mutant (enzyme)
chain: FRRNPQDTGDCWFSDSDAEQKMIDFLVDNIGAYRISENASVVDLGTGNGHMLFELHQTEFQGKLVGIDYSEESVKLASNIAEATGVDNFISFQQADIFSGDWKPGKYDIVLDKGTLDAISLSGMKINGKLDVVDVYAGVVERILKKDGIFLITSCNFTQDELVKIIETDNLKMWKTIKYPVAQAGGVQGATICSVAFVKQN
